From patent US20200024330A1

Key:
Experiment in all cases: cell-based or functional assay
[1] = molecular target: HIV-1 Env of isolate 93IN905 (HIV-1)
[2] = molecular target: HIV-1 Env of isolate 93MW959 (HIV-1)
[3] = molecular target: HIV-1 Env of isolate 97ZA012 (HIV-1)
[4] = molecular target: HIV-1 Env of isolate 98IN022 (HIV-1)
[5] = molecular target: HIV-1 Env of isolate JRCSF (HIV-1) (UniProt P20871)
[6] = molecular target: HIV-1 Env of isolate MGRM-Chronic-B-010 (HIV-1)
[7] = molecular target: HIV-1 Env of isolate MGRM-Chronic-B-011 (HIV-1)
[8] = molecular target: HIV-1 Env of isolate MGRM-Chronic-B-012 (HIV-1)
[9] = molecular target: HIV-1 Env of isolate MGRM-Chronic-B-017 (HIV-1)
[10] = molecular target: HIV-1 Env of isolate MGRM-Chronic-B-018 (HIV-1)
[11] = molecular target: HIV-1 Env of isolate MGRM-Chronic-B-020 (HIV-1)
[12] = molecular target: HIV-1 Env of isolate MGRM-Chronic-B-023 (HIV-1)
[13] = molecular target: HIV-1 Env of isolate MGRM-Chronic-B-024 (HIV-1)
[14] = molecular target: HIV-1 Env of isolate MGRM-D-011 (HIV-1)
[15] = molecular target: HIV-1 Env of isolate MGRM-D-012 (HIV-1)
[16] = molecular target: HIV-1 Env of isolate MGRM-D-013 (HIV-1)
[17] = molecular target: HIV-1 Env of isolate MGRM-D-014 (HIV-1)
[18] = molecular target: HIV-1 Env of isolate MGRM-D-016 (HIV-1)
[19] = molecular target: HIV-1 Env of isolate MGRM-D-018 (HIV-1)
[20] = molecular target: HIV-1 Env of isolate MGRM-D-019 (HIV-1)
[21] = molecular target: HIV-1 Env of isolate MGRM-D-020 (HIV-1)
[22] = molecular target: HIV-1 Env of isolate MGRM-D-021 (HIV-1)
[23] = molecular target: HIV-1 Env of isolate MGRM-D-022 (HIV-1)
[24] = molecular target: HIV-1 Env of isolate MGRM-D-024 (HIV-1)
[25] = molecular target: HIV-1 Env of isolate MGRM-D-026 (HIV-1)
[26] = molecular target: HIV-1 Env of isolate MGRM-D-028 (HIV-1)
[27] = molecular target: HIV-1 Env of isolate MGRM-D-029 (HIV-1)
[28] = molecular target: HIV-1 Env of isolate MGRM-F1-004 (HIV-1)
[29] = molecular target: HIV-1 Env of isolate MGRM-F1-006 (HIV-1)
[30] = molecular target: HIV-1 Env of isolate MGRM-F1-008 (HIV-1)
[31] = molecular target: HIV-1 Env of isolate MGRM-F1-010 (HIV-1)
[32] = molecular target: HIV-1 Env of isolate MGRM-F1-012 (HIV-1)
[33] = molecular target: HIV-1 Env of isolate MGRM-F1-013 (HIV-1)
[34] = molecular target: HIV-1 Env of isolate MGRM-F1-014 (HIV-1)
[35] = molecular target: HIV-1 Env of isolate MGRM-F1-015 (HIV-1)
[36] = molecular target: HIV-1 Env of isolate MGRM-F1-016 (HIV-1)
[37] = molecular target: HIV-1 Env of isolate MGRM-F1-017 (HIV-1)
[38] = molecular target: HIV-1 Env of isolate MGRM-F1-018 (HIV-1)
[39] = molecular target: HIV-1 Env of isolate MGRM-F1-020 (HIV-1)
[40] = molecular target: HIV-1 Env of isolate MGRM-F1-021 (HIV-1)
[41] = molecular target: HIV-1 Env of isolate MGRM-F1-022 (HIV-1)
[42] = molecular target: HIV-1 Env of isolate MGRM-F1-023 (HIV-1)
[43] = molecular target: HIV-1 Env of isolate NL43 (HIV-1)
[44] = molecular target: HIV-1 Env of isolate PVO.4 (HIV-1)
[45] = molecular target: HIV-1 Env of isolate QH0692.42 (HIV-1)
[46] = molecular target: HIV-1 Env of isolate SC422661.8 (HIV-1)
[47] = molecular target: HIV-1 Env of isolate SF162 (HIV-1) (UniProt P19550)
[48] = molecular target: HIV-1 Env of isolate THR0.18 (HIV-1)
[49] = molecular target: HIV-1 Env of isolate TRJ04551.58 (HIV-1)
[50] = molecular target: HIV-1 Env of isolate TRO.11 (HIV-1)
[51] = molecular target: HIV-1 Env of isolate VLGCB3 (HIV-1)

Sequence of PGT-141 (antibody) (VH): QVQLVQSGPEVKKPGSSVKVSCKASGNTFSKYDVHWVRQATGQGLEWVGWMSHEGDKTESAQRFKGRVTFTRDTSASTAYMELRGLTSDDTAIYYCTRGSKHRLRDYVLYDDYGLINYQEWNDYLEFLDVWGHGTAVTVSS
Sequence of PGT-141 (antibody) (VL): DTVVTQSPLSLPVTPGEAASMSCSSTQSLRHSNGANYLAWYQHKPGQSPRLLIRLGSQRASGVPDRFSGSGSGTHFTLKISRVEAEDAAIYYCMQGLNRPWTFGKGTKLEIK

Question: What does the source list for PGT-141 (antibody)?
Answer: neutralization IC50 [1]: 1 ng/mL; neutralization IC50 [2]: 3 ng/mL; neutralization IC50 [3]: > 50 µg/mL; neutralization IC50 [4]: 1 ng/mL; neutralization IC50 [5]: 9 ng/mL; neutralization IC50 [6]: > 50 µg/mL; neutralization IC50 [7]: 2.24 µg/mL; neutralization IC50 [8]: > 50 µg/mL; neutralization IC50 [9]: 0.147 µg/mL; neutralization IC50 [10]: 0.572 µg/mL; neutralization IC50 [11]: > 50 µg/mL; neutralization IC50 [12]: 0.318 µg/mL; neutralization IC50 [13]: 0.011 µg/mL; IC50, pseudovirus neutralization [14]: > 50 µg/mL; IC50, pseudovirus neutralization [15]: > 50 µg/mL; IC50, pseudovirus neutralization [16]: 0.179 µg/mL; IC50, pseudovirus neutralization [17]: 0.01 µg/mL; IC50, pseudovirus neutralization [18]: > 50 µg/mL; IC50, pseudovirus neutralization [19]: > 50 µg/mL; IC50, pseudovirus neutralization [20]: 1.66 µg/mL; IC50, pseudovirus neutralization [21]: > 50 µg/mL; IC50, pseudovirus neutralization [22]: > 50 µg/mL; IC50, pseudovirus neutralization [23]: > 50 µg/mL; IC50, pseudovirus neutralization [24]: > 50 µg/mL; IC50, pseudovirus neutralization [25]: 32.5 µg/mL; IC50, pseudovirus neutralization [26]: < 50 µg/mL; IC50, pseudovirus neutralization [27]: 0.057 µg/mL; IC50, pseudovirus neutralization [28]: 0.021 µg/mL; IC50, pseudovirus neutralization [29]: 8.99 µg/mL; IC50, pseudovirus neutralization [30]: 0.193 µg/mL; IC50, pseudovirus neutralization [31]: > 50 µg/mL; IC50, pseudovirus neutralization [32]: > 50 µg/mL; IC50, pseudovirus neutralization [33]: 0.043 µg/mL; IC50, pseudovirus neutralization [34]: 1 ng/mL; IC50, pseudovirus neutralization [35]: > 50 µg/mL; IC50, pseudovirus neutralization [36]: > 50 µg/mL; IC50, pseudovirus neutralization [37]: 30.8 µg/mL; IC50, pseudovirus neutralization [38]: 0.785 µg/mL; IC50, pseudovirus neutralization [39]: 1.15 µg/mL; IC50, pseudovirus neutralization [40]: > 50 µg/mL; IC50, pseudovirus neutralization [41]: 0.114 µg/mL; IC50, pseudovirus neutralization [42]: 0.307 µg/mL; neutralization IC50 [43]: > 50 µg/mL; neutralization IC50 [44]: 0.113 µg/mL; neutralization IC50 [45]: > 50 µg/mL; neutralization IC50 [46]: 1.66 µg/mL; neutralization IC50 [47]: > 50 µg/mL; neutralization IC50 [48]: 7 ng/mL; neutralization IC50 [49]: > 50 µg/mL; neutralization IC50 [50]: 0.383 µg/mL; neutralization IC50 [51]: > 50 µg/mL
